The Kd is a measure of binding affinity in units of concentration. Higher therefore signals a looser complex.

Here are results for one molecule from publication PMC8274607, “A Derivative of the D5 Monoclonal Antibody That Targets the gp41 N-Heptad Repeat of HIV-1 with Broad Tier-2-Neutralizing Activity” (Journal of Virology, 2021).

The target in the assay is T1, covalent biotinylated CCIZN17 (synthetic IZ coiled coil fused to HIV-1 …).
T1 construct: also called NHR mimetic; mimetic of the NHR trimer
In words: BLI; biotinylated CCIZN17 (200 nM) loaded on streptavidin biosensors to 0.4 nm, Octet RED96; Fab in solution at known concentrations, 4 min association, 4 min dissociation; PBS pH 7.4 with 0.1% BSA and 0.05% Tween 20. Conditions: both partners purified. In general terms: BLI is a label-free optical method that tracks binding on a fibre tip over time.

B1: D5_AR Fab (Fab, V domains shown)
VH: QVQLVQSGAEVRKPGASVKVSCKASGDTFSSYAISWVRQAPGQGLEWMGSIIPLFGTAAYAQKFQGRVTITADESTSTAYMELSSLRSEDTAIYYCARDNPTFGAADSWGKGTLVTVSS
VL: DIQMTQSPSTLSASIGDRVTITCRASEGIYHWLAWYQQKPGKAPKLLIYKASSLASGAPSRFSGSGSGTDFTLTISSLQPDDFATYYCQQYSNYPLTFGGGTKLEIK
notes: also called D5_H011_L0; source: Expi293F, transfected, purified (protein G agarose, SEC)
Regarding B1, the Kd amounted to 1.6 nM.
